Where two headings read alike, the source gives them in different places.
Legend:
Test in all cases: cell-based or functional assay
[1] = target: T1, human GPC3 on tumor cell lines (HepG2, Huh-7, NCI-H661, MKN-45, NCI-H23, BxPC-3, NCI-H292) (human, UniProt P51654 25-554)
[2] = target: T1, human GPC3 on tumor cell lines (HepG2, …); remark: listed apart in the source
[3] = target: T1, human GPC3 on tumor cell lines (HepG2, …); remark: listed apart in the source
[4] = target: T1, human GPC3 on tumor cell lines (HepG2, …); remark: listed apart in the source
[5] = target: T1, human GPC3 on tumor cell lines (HepG2, …); remark: listed apart in the source

B1: A022600174 (other)
chain: DVQLVESGGGVVQPGGSLRLSCVASGYVHKINFYGWYRQAPGKEREKVAHISIGDQTDYADSAKGRFTISRDESKNTVYLQMNSLRPEDTAAYYCRALSRIWPYDYWGQGTLVTVSSGGGGSEVQLVESGGGLVQPGGSLRLSCVASGFTFSSFAMTWVRRPPGKGLEWVATITNGGVTSYRDSVKGRFTISRDNAKNTLYLEMTSLNPEDTAVYICANARRTGPRAPTDIGSYRGQGTLVTVSSGGGGSGGGSEVQLVESGGGLVQPGGSLRLSCVASGSIFRSVFSSSTMEWYRQPPGKKRELVARIAPGDGTNYGALYADSVKGRFTISRDDAKKTVDLQMNSLKPEDTGVYFCASGVAWGQGTLVTVSSGGGGSGGGSEVQLVESGGGVVQPGGSLRLSCAASGFTFRSFGMSWVRQAPGKGPEWVSSISGSGSDTLYADSVKGRFTISRDNSKNTLYLQMNSLRPEDTALYYCTIGGSLSRSSQGTLVTVSSA
- HepG2 on Incucyte IC50 [1]: 0.673 nM
- HepG2 on Incucyte Max % killing [1]: 96%
- Huh7 on xCELLigence IC50 [1]: 0.0626 nM
- Huh7 on xCELLigence Max % killing [1]: 99%
- HepG2 on Incucyte IC50 [2]: 0.673 nM
- HepG2 on Incucyte Max % killing [2]: 96%
- Huh7 on xCELLigence IC50 [2]: 0.0626 nM
- Huh7 on xCELLigence Max % killing [2]: 99%

B2: A022600133 (other)
chain: DVQLVESGGGVVQPGGSLRLSCVASGYVHKINFYGWYRQAPGKEREKVAHISIGDQTDYADSAKGRFTISRDESKNTVYLQMNSLRPEDTALYYCRALSRIWPYDYWGQGTLVTVSSGGGGSEVQLVESGGGLVQPGGSLRLSCVASGSIFRSVFSSSTMEWYRQPPGKKRELVARIAPGDGTNYGALYADSVKGRFTISRDDAKKTVDLQMNSLKPEDTGVYFCASGVAWGQGTLVTVSSGGGGSGGGGSGGGGSGGGGSGGGGSGGGGSGGGGSEVQLVESGGGLVQPGGSLRLSCVASGFTFSSFAMTWVRRPPGKGLEWVATITNGGVTSYRDSVKGRFTISRDNAKNTLYLEMTSLNPEDTAVYICANARRTGPRAPTDIGSYRGQGTLVTVSSGGGGSGGGGSGGGGSGGGGSGGGGSGGGGSGGGGSEVQLVESGGGVVQPGGSLRLSCAASGFTFRSFGMSWVRQAPGKGPEWVSSISGSGSDTLYADSVKGRFTISRDNSKNTLYLQMNSLRPEDTALYYCTIGGSLSRSSQGTLVTVSSA
- IC50 (M), Incucyte human TDC HepG2-Nuclight green assay [3]: 4.08e-10 M
- Max % Killing, Incucyte human TDC HepG2-Nuclight green assay [3]: 92%

B3: A022600104 (other)
chain: DVQLVESGGGVVQPGGSLRLSCVASGYVHKINFYGWYRQAPGKEREKVAHISIGDQTDYADSAKGRFTISRDESKNTVYLQMNSLRPEDTALYYCRALSRIWPYDYWGQGTLVTVSSGGGGSGGGSEVQLVESGGGLVQPGGSLRLSCVASGFTFSSFAMTWVRRPPGKGLEWVATITNGGVTSYRDSVKGRFTISRDNAKNTLYLEMTSLNPEDTAVYICANARRTGPRAPTDIGSYRGQGTLVTVSSGGGGSGGGGSGGGGSGGGGSGGGGSGGGGSGGGGSEVQLVESGGGVVQPGGSLRLSCAASGFTFRSFGMSWVRQAPGKGPEWVSSISGSGSDTLYADSVKGRFTISRDNSKNTLYLQMNSLRPEDTALYYCTIGGSLSRSSQGTLVTVSSA
- IC50 (M), Incucyte human TDC HepG2-Nuclight green assay [4]: 2.13e-09 M
- Max % Killing, Incucyte human TDC HepG2-Nuclight green assay [4]: 90%

B4: A022600134 (other)
chain: DVQLVESGGGVVQPGGSLRLSCVASGYVHKINFYGWYRQAPGKEREKVAHISIGDQTDYADSAKGRFTISRDESKNTVYLQMNSLRPEDTALYYCRALSRIWPYDYWGQGTLVTVSSGGGGSEVQLVESGGGLVQPGGSLRLSCVASGSIFRSVFSSSTMEWYRQPPGKKRELVARIAPGDGTNYGALYADSVKGRFTISRDDAKKTVDLQMNSLKPEDTGVYFCASGVAWGQGTLVTVSSGGGGSGGGGSGGGGSGGGGSEVQLVESGGGLVQPGGSLRLSCVASGFTFSSFAMTWVRRPPGKGLEWVATITNGGVTSYRDSVKGRFTISRDNAKNTLYLEMTSLNPEDTAVYICANARRTGPRAPTDIGSYRGQGTLVTVSSGGGGSGGGGSGGGGSGGGGSGGGGSGGGGSGGGGSEVQLVESGGGVVQPGGSLRLSCAASGFTFRSFGMSWVRQAPGKGPEWVSSISGSGSDTLYADSVKGRFTISRDNSKNTLYLQMNSLRPEDTALYYCTIGGSLSRSSQGTLVTVSSA
- IC50 (M), Incucyte human TDC HepG2-Nuclight green assay [3]: 5.28e-10 M
- Max % Killing, Incucyte human TDC HepG2-Nuclight green assay [3]: 92%

B5: A022600131 (other)
chain: DVQLVESGGGVVQPGGSLRLSCVASGYVHKINFYGWYRQAPGKEREKVAHISIGDQTDYADSAKGRFTISRDESKNTVYLQMNSLRPEDTALYYCRALSRIWPYDYWGQGTLVTVSSGGGGSEVQLVESGGGLVQPGGSLRLSCVASGFTFSSFAMTWVRRPPGKGLEWVATITNGGVTSYRDSVKGRFTISRDNAKNTLYLEMTSLNPEDTAVYICANARRTGPRAPTDIGSYRGQGTLVTVSSGGGGSGGGGSGGGGSGGGGSEVQLVESGGGLVQPGGSLRLSCVASGSIFRSVFSSSTMEWYRQPPGKKRELVARIAPGDGTNYGALYADSVKGRFTISRDDAKKTVDLQMNSLKPEDTGVYFCASGVAWGQGTLVTVSSGGGGSGGGGSGGGGSGGGGSGGGGSGGGGSGGGGSEVQLVESGGGVVQPGGSLRLSCAASGFTFRSFGMSWVRQAPGKGPEWVSSISGSGSDTLYADSVKGRFTISRDNSKNTLYLQMNSLRPEDTALYYCTIGGSLSRSSQGTLVTVSSA
- IC50 (M), Incucyte human TDC HepG2-Nuclight green assay [3]: 4.44e-10 M
- Max % Killing, Incucyte human TDC HepG2-Nuclight green assay [3]: 94%

B6: A022600135 (other)
chain: DVQLVESGGGVVQPGGSLRLSCVASGYVHKINFYGWYRQAPGKEREKVAHISIGDQTDYADSAKGRFTISRDESKNTVYLQMNSLRPEDTALYYCRALSRIWPYDYWGQGTLVTVSSGGGGSEVQLVESGGGLVQPGGSLRLSCVASGSIFRSVFSSSTMEWYRQPPGKKRELVARIAPGDGTNYGALYADSVKGRFTISRDDAKKTVDLQMNSLKPEDTGVYFCASGVAWGQGTLVTVSSGGGGSGGGSEVQLVESGGGLVQPGGSLRLSCVASGFTFSSFAMTWVRRPPGKGLEWVATITNGGVTSYRDSVKGRFTISRDNAKNTLYLEMTSLNPEDTAVYICANARRTGPRAPTDIGSYRGQGTLVTVSSGGGGSGGGGSGGGGSGGGGSGGGGSGGGGSGGGGSEVQLVESGGGVVQPGGSLRLSCAASGFTFRSFGMSWVRQAPGKGPEWVSSISGSGSDTLYADSVKGRFTISRDNSKNTLYLQMNSLRPEDTALYYCTIGGSLSRSSQGTLVTVSSA
- IC50 (M), Incucyte human TDC HepG2-Nuclight green assay [3]: 6.11e-10 M
- Max % Killing, Incucyte human TDC HepG2-Nuclight green assay [3]: 91%

B7: A022600105 (other)
chain: DVQLVESGGGVVQPGGSLRLSCVASGYVHKINFYGWYRQAPGKEREKVAHISIGDQTDYADSAKGRFTISRDESKNTVYLQMNSLRPEDTALYYCRALSRIWPYDYWGQGTLVTVSSGGGGSGGGGSGGGGSGGGGSEVQLVESGGGLVQPGGSLRLSCVASGFTFSSFAMTWVRRPPGKGLEWVATITNGGVTSYRDSVKGRFTISRDNAKNTLYLEMTSLNPEDTAVYICANARRTGPRAPTDIGSYRGQGTLVTVSSGGGGSGGGGSGGGGSGGGGSGGGGSGGGGSGGGGSEVQLVESGGGVVQPGGSLRLSCAASGFTFRSFGMSWVRQAPGKGPEWVSSISGSGSDTLYADSVKGRFTISRDNSKNTLYLQMNSLRPEDTALYYCTIGGSLSRSSQGTLVTVSSA
- IC50 (M), Incucyte human TDC HepG2-Nuclight green assay [4]: 2.14e-09 M
- Max % Killing, Incucyte human TDC HepG2-Nuclight green assay [4]: 85%

B8: A022600132 (other)
chain: DVQLVESGGGVVQPGGSLRLSCVASGYVHKINFYGWYRQAPGKEREKVAHISIGDQTDYADSAKGRFTISRDESKNTVYLQMNSLRPEDTALYYCRALSRIWPYDYWGQGTLVTVSSGGGGSEVQLVESGGGLVQPGGSLRLSCVASGFTFSSFAMTWVRRPPGKGLEWVATITNGGVTSYRDSVKGRFTISRDNAKNTLYLEMTSLNPEDTAVYICANARRTGPRAPTDIGSYRGQGTLVTVSSGGGGSGGGSEVQLVESGGGLVQPGGSLRLSCVASGSIFRSVFSSSTMEWYRQPPGKKRELVARIAPGDGTNYGALYADSVKGRFTISRDDAKKTVDLQMNSLKPEDTGVYFCASGVAWGQGTLVTVSSGGGGSGGGGSGGGGSGGGGSGGGGSGGGGSGGGGSEVQLVESGGGVVQPGGSLRLSCAASGFTFRSFGMSWVRQAPGKGPEWVSSISGSGSDTLYADSVKGRFTISRDNSKNTLYLQMNSLRPEDTALYYCTIGGSLSRSSQGTLVTVSSA
- IC50 (M), Incucyte human TDC HepG2-Nuclight green assay [3]: 7.02e-10 M
- Max % Killing, Incucyte human TDC HepG2-Nuclight green assay [3]: 91%
- HepG2 on Incucyte IC50 [5]: 0.683 nM
- HepG2 on Incucyte Max % killing [5]: 83%
- Huh7 on xCELLigence IC50 [5]: 0.29 nM
- Huh7 on xCELLigence Max % killing [5]: 95%

B9: A022600122 (other)
chain: DVQLVESGGGVVQPGGSLRLSCVASGYVHKINFYGWYRQAPGKEREKVAHISIGDQTDYADSAKGRFTISRDESKNTVYLQMNSLRPEDTALYYCRALSRIWPYDYWGQGTLVTVSSGGGGSEVQLVESGGGLVQPGGSLRLSCVASGFTFSSFAMTWVRRPPGKGLEWVATITNGGVTSYRDSVKGRFTISRDNAKNTLYLEMTSLNPEDTAVYICANARRTGPRAPTDIGSYRGQGTLVTVSSGGGGSGGGGSGGGGSGGGGSGGGGSGGGGSGGGGSEVQLVESGGGLVQPGGSLRLSCVASGSIFRSVFSSSTMEWYRQPPGKKRELVARIAPGDGTNYGALYADSVKGRFTISRDDAKKTVDLQMNSLKPEDTGVYFCASGVAWGQGTLVTVSSGGGGSGGGGSGGGGSGGGGSGGGGSGGGGSGGGGSEVQLVESGGGVVQPGGSLRLSCAASGFTFRSFGMSWVRQAPGKGPEWVSSISGSGSDTLYADSVKGRFTISRDNSKNTLYLQMNSLRPEDTALYYCTIGGSLSRSSQGTLVTVSSA
- IC50 (M), Incucyte human TDC HepG2-Nuclight green assay [3]: 4.45e-10 M
- Max % Killing, Incucyte human TDC HepG2-Nuclight green assay [3]: 92%
- HepG2 on Incucyte IC50 [5]: 0.53 nM
- HepG2 on Incucyte Max % killing [5]: 93%
- Huh7 on xCELLigence IC50 [5]: 0.261 nM
- Huh7 on xCELLigence Max % killing [5]: 101%
